According to patent publication US20030104377, “Tenascin-C nucleic acid ligands” (Gilead Sciences, Inc., published 2003):

How the values were obtained:
Details in all cases: tags: Chemicon (Temecula, CA)
Tenascin-C [1] = target: T1, Tenascin-C (Homo sapiens, UniProt P24821 P24821:23-2201); assay: filter; Family II
Tenascin-C [2] = target: T1, Tenascin-C; assay: filter; Family I
Protocol: (§1) which contains the T7 polymerase promoter (underlined). RNA was prepared with T7 RNA polymerase as described previously in Fitzwater, T., and Polisky, B. 1996. A SELEX primer. Methods Enzymol. 267, 275-301, incorporated herein by reference in its entirety. All transcription reactions were performed in the presence of pyrimidine nucleotides that were 2′-fluoro (2′-F) modified on the sugar moiety. This substitution confers enhanced resistance to ribonucleases that utilize the 2′-hydroxyl moiety for cleavage of the phosphodiester bond. Specifically, each transcription mixture contained 3.3 mM 2′-F UTP and 3.3 mM 2′-F CTP along with 1 mM GTP and ATP. The initial randomized RNA library thus produced comprised 3×10¹⁴ molecules. The affinities of individual ligands for tenascin-C were determined by standard methods using nitrocellulose filter partitioning (Tuerk C, Gold L. Science Aug. 3, 1990 3;249(4968):505-10).

Tenascin-C [3] = target: T1, Tenascin-C; assay: filter; orphan
Protocol: as §1

Tenascin-C [4] = target: T1, Tenascin-C; assay: filter; Family I; printed as 7N22
Tenascin-C [5] = target: T1, Tenascin-C; assay: filter
Tenascin-C [6] = target: T1, Tenascin-C; assay: filter; unit printed as nN
Description: (§2) Oligonucleotide synthesis procedures were standard for those skilled in the art (Green L S, Jellinek D, Bell C, Beebe L A, Feistner B D, Gill S C, Jucker F M, Janjic N. Chem Biol 1995 Oct.;2(10):683-95). 2′-fluoro pyrimidine phosphoramidite monomers were obtained from JBL Scientific (San Luis Obispo, Calif.); 2′-OMe purine, 2′-OH purine, hexyl amine, and (CH₂CH₂O)₆ monomers, along with the dT polystyrene solid support, were obtained from Glen Research (Sterling, Va.). Aptamer affinities were determined using nitrocellulose filter partitioning (Green et al., supra).

Tenascin-C [7] = target: T1, Tenascin-C; assay: filter; remark: listed apart in the source
Description: as §2

T1 sequence (P24821 23-2201, one chain of several): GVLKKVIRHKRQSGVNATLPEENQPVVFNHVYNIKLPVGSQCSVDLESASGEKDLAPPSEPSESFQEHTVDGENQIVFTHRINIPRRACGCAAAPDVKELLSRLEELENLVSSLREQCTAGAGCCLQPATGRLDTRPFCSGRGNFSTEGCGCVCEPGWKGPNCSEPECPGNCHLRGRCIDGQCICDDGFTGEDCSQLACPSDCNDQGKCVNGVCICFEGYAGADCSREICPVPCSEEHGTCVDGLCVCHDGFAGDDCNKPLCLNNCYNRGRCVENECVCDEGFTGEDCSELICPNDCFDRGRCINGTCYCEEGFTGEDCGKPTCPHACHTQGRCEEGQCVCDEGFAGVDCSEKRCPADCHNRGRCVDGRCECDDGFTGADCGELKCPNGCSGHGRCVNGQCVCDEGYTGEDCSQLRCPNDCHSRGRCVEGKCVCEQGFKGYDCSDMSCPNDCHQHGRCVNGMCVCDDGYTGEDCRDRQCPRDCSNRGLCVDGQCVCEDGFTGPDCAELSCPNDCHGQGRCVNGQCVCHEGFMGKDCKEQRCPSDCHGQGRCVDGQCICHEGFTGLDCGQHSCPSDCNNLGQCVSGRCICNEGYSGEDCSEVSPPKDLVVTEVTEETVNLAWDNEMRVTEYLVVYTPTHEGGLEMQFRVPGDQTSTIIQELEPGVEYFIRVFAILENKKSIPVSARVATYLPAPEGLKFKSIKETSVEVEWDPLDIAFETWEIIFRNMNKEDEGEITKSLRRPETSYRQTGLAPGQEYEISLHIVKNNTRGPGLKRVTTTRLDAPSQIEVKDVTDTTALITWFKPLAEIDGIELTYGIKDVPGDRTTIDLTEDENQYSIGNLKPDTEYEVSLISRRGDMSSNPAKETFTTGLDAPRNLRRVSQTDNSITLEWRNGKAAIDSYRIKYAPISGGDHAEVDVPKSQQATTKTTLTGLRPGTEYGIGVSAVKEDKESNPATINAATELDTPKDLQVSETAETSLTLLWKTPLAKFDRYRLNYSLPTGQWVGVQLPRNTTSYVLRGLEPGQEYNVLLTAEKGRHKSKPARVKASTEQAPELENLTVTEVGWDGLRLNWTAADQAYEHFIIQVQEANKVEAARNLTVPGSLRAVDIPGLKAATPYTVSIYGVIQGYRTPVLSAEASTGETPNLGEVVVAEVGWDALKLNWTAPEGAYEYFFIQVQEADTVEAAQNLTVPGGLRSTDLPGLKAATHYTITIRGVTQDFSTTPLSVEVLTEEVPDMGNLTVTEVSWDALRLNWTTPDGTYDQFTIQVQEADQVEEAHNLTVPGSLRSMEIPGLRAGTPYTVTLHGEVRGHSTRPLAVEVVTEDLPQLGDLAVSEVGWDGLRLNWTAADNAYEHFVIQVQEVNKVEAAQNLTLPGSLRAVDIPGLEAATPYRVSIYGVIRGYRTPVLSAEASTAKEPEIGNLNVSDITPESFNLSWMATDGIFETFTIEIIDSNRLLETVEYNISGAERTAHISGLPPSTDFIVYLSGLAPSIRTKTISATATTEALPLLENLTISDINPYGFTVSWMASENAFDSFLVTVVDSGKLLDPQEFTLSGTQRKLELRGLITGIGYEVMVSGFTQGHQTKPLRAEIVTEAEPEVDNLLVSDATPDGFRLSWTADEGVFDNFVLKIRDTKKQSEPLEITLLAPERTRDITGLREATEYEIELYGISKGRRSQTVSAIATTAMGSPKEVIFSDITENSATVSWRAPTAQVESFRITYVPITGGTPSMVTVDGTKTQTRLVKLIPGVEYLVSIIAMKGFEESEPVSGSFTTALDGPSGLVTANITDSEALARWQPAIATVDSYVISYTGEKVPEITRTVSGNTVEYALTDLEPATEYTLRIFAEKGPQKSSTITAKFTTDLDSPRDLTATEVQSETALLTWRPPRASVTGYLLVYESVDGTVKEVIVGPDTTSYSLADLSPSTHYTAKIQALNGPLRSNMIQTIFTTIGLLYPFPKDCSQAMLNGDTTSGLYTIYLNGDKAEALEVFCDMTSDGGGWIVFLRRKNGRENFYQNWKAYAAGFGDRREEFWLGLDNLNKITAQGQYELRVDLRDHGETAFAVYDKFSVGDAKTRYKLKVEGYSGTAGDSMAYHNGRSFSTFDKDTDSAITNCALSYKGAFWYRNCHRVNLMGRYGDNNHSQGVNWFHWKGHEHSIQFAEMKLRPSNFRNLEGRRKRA

B1: E9P2-1 (ssRNA)
RNA: GGGAGGACGAUGCGGUGCCCAUAGAAGCGUGCCGCUAAUGCUAACGCCCUCCCCCAGACGACUCGCCCGA
modifications: 2'-F C and U
With B1 the Kd (Tenascin-C [1]) was 2 nM.

B2: TN41 (ssRNA)
RNA: GGGAGGACGAUGCGGUUAAGUCUCGGUUGAAUGCCCAUCCCAGAUCCCCCUGACCCAGACGACUCGCCCGA
modifications: 2'-F C and U
For B2, the Kd (Tenascin-C [1]) was 20 nM.

B3: TN32 (ssRNA)
RNA: GGGAGGACGAUGCGGCAACCUCAAUCUUGACAUUUCCCGCACCUAAAUUUGCCCCCAGACGACUCGCCCGA
modifications: 2'-F C and U
In the case of B3, the Kd (Tenascin-C [2]) is reported as 15 nM.

B4: TN29 (ssRNA)
RNA: GGGAGGACGAUGCGGCCAACCUCAUUUUGACACUUCGCCGCACCUAAUUGCCCCCAGACGACUCGCCCGA
modifications: 2'-F C and U
B4 showed a Kd (Tenascin-C [2]) of 25 nM.

B5: TN44 (ssRNA)
RNA: GGGAGGACGAUGCGGACGCCAGCCAUUGACCCUCGCUUCCACUAUUCCAUCCCCCCAGACGACUCGCCCGA
modifications: 2'-F C and U
For B5, the Kd (Tenascin-C [2]) was 10 nM.

B6: TN11 (ssRNA)
RNA: GGGAGGACGAUGCGGCAAUCAAAACUCACGUUAUUCCCUCAUCUAUUAGCUUCCCCAGACGACUCGCCCGA
modifications: 2'-F C and U
With B6 the Kd (Tenascin-C [2]) was 10 nM.

B7: TN21 (ssRNA)
RNA: GGGAGGACGAUGCGGACUGGACCAAACCGUCGCCGAUACCCGGAUACUUUGCUCCCAGACGACUCGCCCGA
modifications: 2'-F C and U
With B7 the Kd (Tenascin-C [1]) was 10 nM.

B8: TN18 (ssRNA)
RNA: GGGAGGACGAUGCGGUCGACCUCGAAUGACUCUCCACCUAUCUAACAUCCCCCCCCAGACGACUCGCCCGA
modifications: 2'-F C and U
Work on B8 yielded a Kd (Tenascin-C [3]) of 145 nM.

B9: TN4 (ssRNA)
RNA: GGGAGGACGAUGCGGCAACCUCGAAAGACUUUUCCCGCAUCACUGUGUACUCCCCCAGACGACUCGCCCGA
modifications: 2'-F C and U
Work on B9 yielded a Kd (Tenascin-C [2]) of 40 nM.

B10: TN22 (ssRNA)
RNA: GGGAGGACGAUGCGGCAACCUCGAUAGACUUUUCCCGCAUCACUGUGUACUCCCCCAGACGACUCGCCCGA
modifications: 2'-F C and U
Binder B10 has a Kd (Tenascin-C [4]) of 40 nM.

B11: TN14 (ssRNA)
RNA: GGGAGGACGAUGCGGCAAACGAUCACUUACCUUUCCUGCAUCUGCUAGCCUCCCCCAGACGACUCGCCCGA
modifications: 2'-F C and U
In the case of B11, the Kd (Tenascin-C [2]) is reported as 20 nM.

B12: TN7 (ssRNA)
RNA: GGGAGGACGAUGCGGAACACUUUCCCAUGCGUCGCCAUACCGGAUAUAUUGCUCCCAGACGACUCGCCCGA
modifications: 2'-F C and U
With B12 the Kd (Tenascin-C [1]) was 20 nM.

B13: TN45 (ssRNA)
RNA: GGGAGGACGAUGCGGCAAUCUCCGAAAAAGACUCUUCCUGCAUCCUCUCACCCCCCAGACGACUCGCCCGA
modifications: 2'-F C and U
With B13 the Kd (Tenascin-C [2]) was 30 nM.

B14: TN9 (ssRNA)
RNA: GGGAGGACGAUGCGGAACAAUGCACUCGUCGCCGUAAUGGAUGUUUUGCUCCCUGCAGACGACUCGCCCGA
modifications: 2'-F C and U
Binder B14 has a Kd (Tenascin-C [1]) of 5 nM.

B15: TN27 (ssRNA)
RNA: GGGAGGACGAUGCGGAAACCAACCGUUGACCACCUUUUCGUUUCCGGAAAGUCCCCAGACGACUCGCCCGA
modifications: 2'-F C and U
B15 gave a Kd (Tenascin-C [3]) of 110 nM.

B16: E9P2-2 (ssRNA)
RNA: GGGAGGACGAUGCGGUGCCCACUAUGCGUGCCGAAAAACAUUUCCCCCUCUACCCCAGACGACUCGCCCGA
modifications: 2'-F C and U
B16 showed a Kd (Tenascin-C [1]) of 8 nM.

B17: TN24 (ssRNA)
RNA: GGGAGGACGAUGCGGGACCAACUAAACUGUUCGAAAGCUGGAACAUGUCCUGACGCCAGACGACUCGCCCGA
modifications: 2'-F C and U
For B17, the Kd (Tenascin-C [3]) was 10 nM.

GGGAGGACGCACUCGUCGCCGUAAUGGAUGUUUUGCUCCCUG (ssRNA, 2'-F C and U [2'-F: 8,10,12-14,16,17,19,20,22,25,29,31-34,36-41]) [TN9 with CACU loop]: binds (Tenascin-C [5]).

GGGAGGACGGAGACGUCGCCGUAAUGGAUGUUUUGCUCCCUG (ssRNA, 2'-F C and U [2'-F: 8,14,16,17,19,20,22,25,29,31-34,36-41]) [TN9 with GAGA loop]: binds (Tenascin-C [5]).

B18: TN9.4 (ssRNA)
RNA: GGGAGGACGAUGCGGAACAAUGCACUCGUCGCCGUAAUGGAUGUUUUGCUCCCUG
modifications: 2'-F C and U; 3'-3' cap
In the case of B18, the Kd (Tenascin-C [6]) is reported as 2 nM.

B19: TN9.4M135A10 (ssRNA)
RNA: GGGAGGACGAUGCGGAACAAUGCACUCGUCGCCGUAAUGGAUGUUUUGCUCCCUG
modifications: 2'-F C and U; 2'-OMe purines of sectors 1,3,5 plus A10; 5' hexyl amine; 3'-3' cap
For B19, the Kd (Tenascin-C [7]) was 1.3 nM.

B20: TN9.4M1235 (ssRNA)
RNA: GGGAGGACGAUGCGGAACAAUGCACUCGUCGCCGUAAUGGAUGUUUUGCUCCCUG
modifications: 2'-F C and U; 2'-OMe purines of sectors 1,2,3,5 (G28,G31,G34 2'-OH); 5' hexyl amine; 3'-3' cap
Work on B20 yielded a Kd (Tenascin-C [7]) of 16.5 nM.

B21: TN9.4M135G31 (ssRNA)
RNA: GGGAGGACGAUGCGGAACAAUGCACUCGUCGCCGUAAUGGAUGUUUUGCUCCCUG
modifications: 2'-F C and U; 2'-OMe purines of sectors 1,3,5 plus G31; 5' hexyl amine; 3'-3' cap
B21 gave a Kd (Tenascin-C [7]) of 55 nM.

B22: TN9.4M135G9 (ssRNA)
RNA: GGGAGGACGAUGCGGAACAAUGCACUCGUCGCCGUAAUGGAUGUUUUGCUCCCUG
modifications: 2'-F C and U; 2'-OMe purines of sectors 1,3,5 plus G9; 5' hexyl amine; 3'-3' cap
B22 showed a Kd (Tenascin-C [7]) of 7.7 nM.

B23: TN9.4M5 (ssRNA)
RNA: GGGAGGACGAUGCGGAACAAUGCACUCGUCGCCGUAAUGGAUGUUUUGCUCCCUG
modifications: 2'-F C and U; 2'-OMe A36,A37,G39,G40,A41,G43,G48; 3'-3' cap
For B23, the Kd (Tenascin-C [7]) was 4 nM.

B24: TN9.4M2 (ssRNA)
RNA: GGGAGGACGAUGCGGAACAAUGCACUCGUCGCCGUAAUGGAUGUUUUGCUCCCUG
modifications: 2'-F C and U; 2'-OMe G6,A7,G9,A10,G12,G14; 3'-3' cap
In the case of B24, the Kd (Tenascin-C [7]) is reported as 20 nM.

B25: TN9.4M135G12G14 (ssRNA)
RNA: GGGAGGACGAUGCGGAACAAUGCACUCGUCGCCGUAAUGGAUGUUUUGCUCCCUG
modifications: 2'-F C and U; 2'-OMe purines of sectors 1,3,5 plus G12,G14; 5' hexyl amine; 3'-3' cap
In the case of B25, the Kd (Tenascin-C [7]) is reported as 2.5 nM.

B26: TN9.4M3 (ssRNA)
RNA: GGGAGGACGAUGCGGAACAAUGCACUCGUCGCCGUAAUGGAUGUUUUGCUCCCUG
modifications: 2'-F C and U; 2'-OMe G15,A16,A17,A19,A20,G22,A24; 3'-3' cap
For B26, the Kd (Tenascin-C [7]) was 7 nM.

B27: TN9.4M135G34 (ssRNA)
RNA: GGGAGGACGAUGCGGAACAAUGCACUCGUCGCCGUAAUGGAUGUUUUGCUCCCUG
modifications: 2'-F C and U; 2'-OMe purines of sectors 1,3,5 plus G34; 5' hexyl amine; 3'-3' cap
With B27 the Kd (Tenascin-C [7]) was 7 nM.

B28: TN9.4M1 (ssRNA)
RNA: GGGAGGACGAUGCGGAACAAUGCACUCGUCGCCGUAAUGGAUGUUUUGCUCCCUG
modifications: 2'-F C and U; 2'-OMe G1,G2,G3,A4,G5,G55; 3'-3' cap
In the case of B28, the Kd (Tenascin-C [7]) is reported as 6 nM.

B29: TN9.4M135A7 (ssRNA)
RNA: GGGAGGACGAUGCGGAACAAUGCACUCGUCGCCGUAAUGGAUGUUUUGCUCCCUG
modifications: 2'-F C and U; 2'-OMe purines of sectors 1,3,5 plus A7; 5' hexyl amine; 3'-3' cap
Binder B29 has a Kd (Tenascin-C [7]) of 1.7 nM.

B30: TN9.4M135G6 (ssRNA)
RNA: GGGAGGACGAUGCGGAACAAUGCACUCGUCGCCGUAAUGGAUGUUUUGCUCCCUG
modifications: 2'-F C and U; 2'-OMe purines of sectors 1,3,5 plus G6; 5' hexyl amine; 3'-3' cap
Work on B30 yielded a Kd (Tenascin-C [7]) of 2.2 nM.

B31: TN9.4Me (ssRNA)
RNA: GGGAGGACGAUGCGGAACAAUGCACUCGUCGCCGUAAUGGAUGUUUUGCUCCCUG
modifications: 2'-F C and U; 2'-OMe all purines; 3'-3' cap
In the case of B31, the Kd (Tenascin-C [7]) is reported as 10 nM.

B32: TN9.4M135G28 (ssRNA)
RNA: GGGAGGACGAUGCGGAACAAUGCACUCGUCGCCGUAAUGGAUGUUUUGCUCCCUG
modifications: 2'-F C and U; 2'-OMe purines of sectors 1,3,5 plus G28; 5' hexyl amine; 3'-3' cap
In the case of B32, the Kd (Tenascin-C [7]) is reported as 37 nM.
